Molecular target: T1, GST-tagged full-length EhJAB1 (Entamoeba histolytica, UniProt C4LTS3 1-318)
T1 construct: EhJAB1 of Entamoeba histolytica, EHI_050500, full length (gene of 957 base pairs; deletions count to residue 318), codon optimized; Cloned in pDEST15 and sub-cloned in pGEX-4T1; also called GST-EhJAB1; GST-JAB1; source: E. coli BL21(DE3); purified on glutathione-sepharose (BLI)
T1 sequence (looked up): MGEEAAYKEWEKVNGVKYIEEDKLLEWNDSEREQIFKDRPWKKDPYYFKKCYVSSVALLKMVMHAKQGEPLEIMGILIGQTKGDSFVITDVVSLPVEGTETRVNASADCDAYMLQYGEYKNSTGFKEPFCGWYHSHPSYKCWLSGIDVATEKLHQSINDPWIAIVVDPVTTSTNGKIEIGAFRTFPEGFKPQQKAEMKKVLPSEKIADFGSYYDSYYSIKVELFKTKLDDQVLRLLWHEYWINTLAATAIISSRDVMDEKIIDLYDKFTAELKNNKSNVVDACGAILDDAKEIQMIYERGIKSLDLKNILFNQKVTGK
Experiment: BLI; GST-EhJAB1 or GST loaded on anti-GST biosensors; EhMIF 5 to 80 nM (2-fold series); 1x DPBS, 0.1% BSA, 0.02% Tween 20; association 600 s, dissociation 600 s
Conditions: both partners purified

B1: Entamoeba histolytica MIF (EhMIF), recombinant (natural protein)
chain: MPHALITLSADITEEIKKEIAHESMKILSEVIGKPISYCATQVVTSVGGFGGKIVKSAFIDIKSISGLKGKQEGLSDRYCKLLEQKAGIEGGNIYLNFTEMTGNNWGYDHSTF
Kd: 38.6 nM
